# Results published in patent publication US10760049B2, “Generation of neural stem cells from undifferentiated human embryonic stem cells” (ES Cell International PTE Ltd., priority 2002, dated 2020).
# Columns and labels:
# [1] = test system: hES cell derived neural progenitors; test: Directed differentiation of neural progenitors towards a midbrain fate; scoring of TH+ clumps and TH+ neurons; type: cell-based, human; conditions: for effect on the proportion of TH+ clumps: added at 10 ng/ml to IBMX, Forskolin, PMA, dopamine and AA
# Source text: Neurospheres that were generated from noggin treated ES cell colonies as described above (Example 1) were propagated 21-35 days in NPM supplemented with FGF-2 and EGF. At this point the spheres were chopped into small clumps (2000-3000 cells per clump). FGF-2 and EGF were removed from the medium and the progenitors were directed to take a midbrain fate by treatment with various factors for 6-8 days. During treatment with the various factors the clumps were either cultured in suspension or plated on poly-D-lysine and laminin. The factors included. FGF1, FGF8, FGF17 (R&D Systems) at concentrations of 100-200 ng/ml SHH (R&D Systems) at 0.5-1 μg/ml. Other signal transduction inducers: cAMP inducers: IBMX (Sigma, 0.25 mM), forskolin (Sigma 50 μM), PKC inducers PMA (Sigma 200 nM) and dopamine (Sigma 20 μM) were also used. The medium was also supplemented with the survival factors Ascorbic acid (AA) (Sigma) at concentration of 400-800 μM and NT4 (R&D Systems) at concentration of 20 ng/ml. The medium was changed every other day. To induce further differentiation into neurons, the spheres were again disaggregated into small clumps and plated on poly-D-lysine (30-70 kDa. 10 μg/ml, Sigma) and laminin (4 μg/ml, Sigma) and cultured in NPM in the absence of the factors and in the presence of AA with or without NT4 for 5-10 days. Differentiated cells were analysed by indirect immunofluorescence (as described in example 1) for the expression of β-tubulin type III (Sigma, 1:1000-3000) Tyrosine hydroxylase (TH) (Sigma anti mouse monoclonal, 1:250-500 and Pel-Freez anti rabbit polyclonal, 1:50-100) dopamine transporter (DAT;_Chemicon; rabbit polyclobal 1:50-100) and Nurr1 (Santa Cruz, Calif.; rabbit poly clonal 1:100-200). The proportion of clumps of cells that were comprised of a significant number of TH+ cells (>50 cells) was scored. Double immunostaining for TH and β-tubulin type III was used to analyse the percentage of cells within clumps expressing TH from the total number of neurons β-tubulin type III+cells). Multiple confocal microscopy images of consecutive planes through the clump were projected into one image for this analysis (FIG. 14) Ten-fifteen random fields were analysed.
# [2] = test system: human ES cells (HES-1 cell line); test: Noggin-directed differentiation of hES cell colonies on feeders; immunophenotype of derived spheres and rosette areas; type: cell-based
# Experimental: To derive enriched preparations of neural progenitors, differentiation of human ES cells was directed into neural fate by transfer of undifferentiated hES cell clumps onto fresh feeders and culture in a modified hES cell medium with reduced serum concentration and in the presence of the BMP antagonist noggin. Specifically, human ES cells (HES-1 cell line, Reubinoff et al 2000, PCT/AU99/00990) with a stable normal (46XX) karyotype were cultured on mitomycin C mitotically inactivated mouse embryonic fibroblast feeder layer in gelatine coated tissue culture dishes as previously described (Reubinoff et al., 2000 PCT/AU99/00990 and PCT/AU01/00278). To induce differentiation, at the usual passage, clumps of undifferentiated ES cells were plated on fresh feeders and cultured in the usual hES medium supplemented with 10% serum (instead of 20%) and 500 ng/ml of noggin (R&D systems). Noggin (500 ng/ml) was further added to the medium every other day throughout a 6-8 day culture period (3-4 administrations). After 6-8 days, noggin was omitted and the cells were further cultured in the modified medium with 10% serum for additional 4-6 days. At this time about 12-14 days, about 70% of the colonies differentiated mostly into areas that were comprised of tightly packed small cells with a uniform grey opaque appearance under dark field stereo microscope (FIG. 1a, PCT/AU01/00278, PCT/AU01/00735). Other colonies differentiated into areas with structures that could resemble primitive neural rosettes (FIG. 1b).
# Clumps of about 150 cells were mechanically isolated by using the razor-sharp edge of a micro glass pipette or a razor blade from the grey opaque areas and replated in serum-free medium supplemented with human recombinant FGF-2 and EGF. Specifically, the clusters of cells were transferred to plastic tissue culture dishes containing neural progenitors growth medium (NPM) that consisted of DMEM/F12 (1:1), B27 supplementation (1:50), glutamine 2 mM, penicillin 50 u/ml and streptomycin 50 μg/ml (Gibco), and supplemented with 20 ng/ml human recombinant epidermal growth factor (EGF), and 20 ng/ml fibroblast growth factor 2 (FGF2) (R & D Systems, Inc., Minneapolis, Minn.). Under these culture conditions the clumps formed free floating spherical structures within 24 hours and sequential propagation and expansion of the sphere cultures was possible as previously described (Reubinoff at al., 2001, PCT/AU01/00278) for prolonged periods (6 months).
# During the initial weeks in culture, the spheres gradually acquired a uniform morphology (FIG. 3 A,B). A detailed analysis of marker expression by the cell within the spheres was conducted at 3-4, 8 and 12 weeks after derivation. The spheres were disaggregated into single cells that were plated, fixed and analysed by fluorescent immunohistochemistry for the expression of the early neural markers N-CAM, A2B5, PSA-NCAM and nestin. A high proportion of the cells expressed these markers (N-CAM 83±4% A2B5 84±4%, nestin 69±6% PSA-NCAM 74±2%) and the level of expression was stable during the 12 weeks period.
# The phenotype of cells within the areas with structures that could resemble primitive neural rosettes (FIG. 1b) was also analyzed. These areas were mechanically dissected, and disaggregated. The cells were plated on laminin and cultured in NPM for two days.
# (§1) In general, for the immunophenotyping of disaggregated neural progenitor cells and differentiated neurons, fixation with 4% paraformaldehyde for 20 minutes at room temperature was used unless otherwise specified. It was followed by blocking with 5% heat inactivated goat serum (Dako) and permeabilization with 0.2% Triton X (Sigma) in PBS with 0.1% BSA for 30 minutes. Samples were incubated with the primary antibodies at room temperature for one hour. […]
# [3] = test system: undifferentiated human ES cell clumps; test: hES cell clumps cultured in suspension in NPM+FGF2 with or without noggin; indirect immunofluorescence for neural and non-neural markers; type: cell-based; conditions: for proportion of cells expressing endodermal and mesodermal markers: noggin 350 and 700 ng/ml versus no noggin, then a week of differentiation
# Experimental: In an alternative approach, undifferentiated human ES cell clumps of about 200 cells were transferred into NPM and cultured in suspension in the presence of noggin (350 and 700 ng/ml) for approximately 3 weeks. To further induce neural differentiation, proliferation and prevent the differentiation of neural progenitors the medium was also supplemented with human recombinant FGF-2 (20 ng/ml). LIF (10 ng/ml) was also included in the medium in early experiments. The media was replaced twice a week. Under these culture conditions the clumps of hES cells turned into round spheres within 7 days (FIG. 3 C,D).
# To evaluate the effect of these culture conditions, we have evaluated the phenotype of cells within clumps following three weeks of culture. We have examined two concentrations of noggin (350 and 700 ng/ml) in comparison to culture in NPM supplemented with FGF2 in the absence of noggin. The clusters were disaggregated into single cells or small clumps that were plated, cultured for 4 hours on laminin, fixed and analysed by indirect immunofluorescence for the expression of the early neural markers nestin, A2B5 and N-CAM. Markers of endoderm (probably extraembryonic; low molecular weight (LMW) cytokeratin and laminin) and mesoderm (muscle specific actin and desmin) were examined after a week of differentiation. Immunofluorescence methods and source of antibodies are described below in section (C).
# To analyse and differentiate between the effect of NPM supplemented with FGF2 and noggin on the differentiation of the hES cell clusters we have characterized and compared the differentiation of these clusters following culture in three different media (FIG. 5): (a) NPM supplemented with b-FGF and noggin (700 ng/ml), (b) the same medium without noggin and (c) knockout (KO) medium. After three weeks of culture a significant difference in the morphology of the clusters was observed. Clusters that were cultured in KO medium had the typical morphology of embryoid bodies (EBs, FIG. 5c). Clusters that were cultured in NPM and FGF2 were characterized by cystic structures and areas of dense cells resembling neural spheres (FIG. 5b). Clusters that were cultured in the presence of noggin had the typical morphology of neural spheres without cystic structures (FIG. 5a).
# Clusters that were cultured in NPM with (FIG. 5a) or without noggin (FIG. 5b) were further cultured for an additional 3 weeks in NPM supplemented with FGF2 in the absence of noggin (FIG. 5).
# To characterize and compare the phenotype of cells within the clusters following differentiation and propagation at the various culture conditions (FIG. 5), the clusters were disaggregated after 3 weeks in culture into single cells or small clumps that were plated, cultured for 4 hours on laminin, fixed and analysed for the expression of the early neural markers nestin, A2B5, N-CAM, PSA-NCAM and β-tubulin III (FIG. 6). The same analysis was done after additional 3 weeks of culture in NPM supplemented with FGF2 (FIG. 7).
# The percentage of cells within the clumps that expressed non-neural markers at 3 weeks (FIG. 8) and 6 weeks (FIG. 9) of the same floating cultures as above was analysed. Indirect immuno fluorescence analysis of the expression of non-neural markers was performed following disaggregation of the clumps and one week of differentiation on laminin.
# as §1
# [4] = test system: undifferentiated human ES cell clumps; test: RT-PCR of non-neural marker transcripts in noggin treated hES cell clumps; type: cell-based
# Experimental: At the RNA level, RT-PCR analysis confirmed that in the noggin treated clumps the expression of the endodermal (probably extraembryonic) marker alpha-fetal protein was reduced/undetectable at 3 weeks. This marker was also undetectable at 6 weeks.
# RT-PCR was performed as previously described (Reubinoff et al., 2001). Primer sequences (forward and reverse) and the length of amplified products were as previously described (Reubinoff et al 2001) for alpha-feto-protein and HNF3a and as follows for keratin 8: […]
# [5] = spheres derived from noggin treated colonies, 3-4, 8 and 12 weeks after derivation
# [6] = three weeks in NPM+FGF2+noggin (700 ng/ml)
molecule,measurement,setting,value
"O=C1O[C@H]([C@@H](O)CO)C(O)=C1O [ascorbic acid, reference compound]",percentage of TH+ neurons from the total number of neurons (β-tubulin type III+ cells),"[1]; confocal microscopy, cellular level",45%
same,proportion of TH+ clumps (clumps with >50 TH+ cells),"[1]; factors for 6-8 days after removal of FGF-2 and EGF, then differentiation on poly-D-lysine and laminin with AA",35%
FGF-1: fibroblast growth factor FGF1 (R&D Systems),effect on the proportion of TH+ clumps,[1],did not increase
"noggin: BMP antagonist noggin (R&D systems) (protein, UniProt Q13253 28-232, looked up) Noggin: QHYLHIRPAPSDNLPLVDLIEHPDPIFDPKEKDLNETLLRSLLGGHYDPGFMATSPPEDRPGGGGGAAGGAEDLAELDQLLRQRPSGAMPSEIKGLEFSEGLAQGKKQRLSKKLRRKLQMWLWSQTFCPVLYAWNDLGSRFWPRYVKVGSCFSKRSCSVPEGMVCKPSKSVHLTVLRWRCQRRGGQRCGWIPIQYPIISECKCSC",cells expressing N-CAM and nestin,"[2]; areas resembling primitive neural rosettes in noggin treated colonies, two days on laminin in NPM",95-100%
same,colonies differentiated mostly into areas of tightly packed small cells,"[2]; noggin 500 ng/ml every other day for 6-8 days, 10% serum, on feeders, scored at about 12-14 days",about 70%
same,cells expressing A2B5,[2]; [5],84±4%
same,cells expressing N-CAM,[2]; [5],83±4%
same,cells expressing PSA-NCAM,[2]; [5],74±2%
same,cells expressing nestin,[2]; [5],69±6%
same,cells expressing non-neural markers,[3]; after additional 3 weeks of culture in NPM+FGF2 (6 weeks),undetectable or rare
same,percentage of cells expressing nestin and A2B5 versus NPM+FGF2 without noggin,"[3]; noggin 700 ng/ml, three weeks",slightly higher
same,proportion of cells expressing endodermal and mesodermal markers,[3]; three weeks,significantly reduced after noggin treatment in a dose dependent manner
same,proportion of cells expressing endodermal and mesodermal markers,"[3]; three weeks, listed as Noggin",reduced in a dose dependent manner
same,percentage of cells expressing non-neural markers,"[3]; noggin treated cultures after 3 weeks, one week of differentiation on laminin",significant reduction
same,percentage of cells expressing A2B5,[3]; [6],95.6%
same,percentage of cells expressing NCAM,[3]; [6],73%
same,percentage of cells expressing NCAM,"[3]; three weeks in NPM+FGF2+noggin, then additional 3 weeks in NPM+FGF2",93%
same,expression of endodermal marker alpha-fetal protein (RT-PCR),[4]; 3 weeks,reduced/undetectable
same,expression of transcripts of epidermal marker keratin-14 (RT-PCR),[4]; 3 weeks,significantly reduced
same,expression of endodermal marker HNF3α (RT-PCR),[4]; 6 weeks,reduced/undetectable
same,expression of endodermal marker alpha-fetal protein (RT-PCR),[4]; 6 weeks,undetectable
same,expression of transcripts of epidermal marker keratin-14 (RT-PCR),[4]; 6 weeks,undetectable
"FGF-8: fibroblast growth factor FGF8 (R&D Systems) (protein, UniProt P55075 23-233, looked up) Fibroblast growth factor 8: QEGPGRGPALGRELASLFRAGREPQGVSQQHVREQSLVTDQLSRRLIRTYQLYSRTSGKHVQVLANKRINAMAEDGDPFAKLIVETDTFGSRVRVRGAETGLYICMNKKGKLIAKSNGKGKDCVFTEIVLENNYTALQNAKYEGWYMAFTRKGRPRKGSKTRQHQREVHFMKRLPRGHHTTEQSLRFEFLNYPPFTRSLRGSQRTWAPEPR",effect on the proportion of TH+ clumps,[1],did not increase
